Experimental data taken from paper PMC11477109, “NgAP2a Targets KCS Gene to Promote Lipid Accumulation in Nannochloropsis gaditana”.
Positions count from the first letter of the chain named.

T1: PET28-NgAP2a (Nannochloropsis gaditana, UniProt W7TGT1 140-326)
T1 sequence: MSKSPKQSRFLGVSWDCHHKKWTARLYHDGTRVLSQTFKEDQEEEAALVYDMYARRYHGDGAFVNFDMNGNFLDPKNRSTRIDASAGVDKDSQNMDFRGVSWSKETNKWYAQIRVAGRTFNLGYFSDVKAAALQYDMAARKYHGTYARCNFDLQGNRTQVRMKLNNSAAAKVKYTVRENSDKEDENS

B1: M3 probe (EMSA3) (dsDNA)
DNA 1: GGCGTTGCCACTTGGGCAAAGAAAAGCTGG
DNA 2: CCAGCTTTTCTTTGCCCAAGTGGCAACGCC
B2: M5 probe (EMSA5) (dsDNA)
DNA 1: CTCATTCCCATACCGCAAGTACCTGACCCTGTA
DNA 2: TACAGGGTCAGGTACTTGCGGTATGGGAATGAG
B3: mutant M5 competitor (mu_EMSA5) (dsDNA)
DNA 1: B2 DNA 1 with C13A, C14A, G15A
DNA 2: B2 DNA 2 with C19T, G20T, G21T
B4: unlabeled M5 competitor (dsDNA)
DNA 1: B2 DNA 1
DNA 2: B2 DNA 2

Legend:
PET28-NgAP2a [1] = target: T1, PET28-NgAP2a; assay: EMSA; Beyotime Chemiluminescent EMSA Kit GS009 per manual; buffer, salt, pH and temperature not stated; conditions: protein: recombinant; label: 3' biotin; blunt
PET28-NgAP2a [2] = target: T1, PET28-NgAP2a; assay: competition; 100x unlabeled vs biotin M5 probe; Beyotime Chemiluminescent EMSA Kit GS009 per manual; buffer, salt, pH and temperature not stated; conditions: protein: recombinant; label: none (unlabeled); blunt

| Binder | binding result (PET28-NgAP2a [1]) | binding result (PET28-NgAP2a [2]) |
| --- | --- | --- |
| B1 | no binding | – |
| B2 | binds | – |
| B3 | – | no binding |
| B4 | – | binds |
